Results published in patent publication US20210261671A1 (HARPOON THERAPEUTICS, published 2021).
Numbering of substitutions follows the chain as printed.

B1: FLL142 (VHH)
VHH: QVQLQESGGGLVQAGGSLRLSCAVSGRTFSGFGTGWFRQAPGKEREFVAAISWDGGRTHYADFVKGRFTISRDNAKNTVYLQMNSLKPEDTAVYYCAAQVARAYDSKWYSGGDYWGQGTQVTVSS
notes: llama anti-FLT3 variable domain; E. coli periplasmic extract
B2: FLL143 (VHH)
VHH: B1 VHH with D54V, F63S, S106G, K107N
notes: as for B1
B3: FLL188 (VHH)
VHH: B1 VHH with R19G, A40P, G42E, F63S, Y80F, K107R
notes: as for B1
B4: FLL168 (VHH)
VHH: QVQLQESGGGSVQAGGSLRLSCAFSGRTFSGFGTGWFRQAPEKEREFVAAISWDGGRTHYADSVKGRFTISRDNAKNTVYLQMDSLKPEDTAIYYCAAQVSRAYDGRWYSAVDYWGRGTQVTVSS
notes: as for B1
B5: FLL170 (VHH)
VHH: B1 VHH with D54S, R57T, F63S, A98G, K107S, G111R
notes: as for B1
B6: FLL553 (VHH)
VHH: QVQLQESGGGLVQAGGSLRLSCAVSGRTFSGFGTGWFRQAPGKEREFVAAISWSGGTTHYADSVKGRFTISRDNAKNTVNLVYLQMNSLRPEDTAVYYCAGQVARAYDSNWYSRGDYWGQGTQVTVSS
notes: as for B1
B7: FLL53 (VHH)
VHH: B6 VHH with G16D, I51V, W53Q, V79E, N80T, R90K, N110S, S113A
notes: as for B1
B8: FLL75 (VHH)
VHH: B6 VHH with S88D
notes: as for B1
B9: FLL40 (VHH)
VHH: B6 VHH with N80S, R90K, E92D, N110S, W118L
notes: as for B1
B10: FLL84 (VHH)
VHH: QVQLQESGGGLVQAGGSLMVSCAASGGTFSSYATGWFRQVPGKEREFIAGISRSGGRTYYAESVKGRFTISRDNAKNTVYLQMNTLKPDDTAVYYCAAARYFTTSVVYTSGDDYDYWGQGTQVTVSS
notes: as for B1
B11: FLL102 (VHH)
VHH: B10 VHH with F29W, E46K, F47L, T104S, D112N
notes: as for B1
B12: FLL41 (VHH)
VHH: B10 VHH with A14L, G16D, K43R
notes: as for B1
B13: FLL71 (VHH)
VHH: B10 VHH with A14V, S54N, G55S, T104R, S105D, V106A
notes: as for B1
B14: FLL67 (VHH)
VHH: B10 VHH with A14L, G16D
notes: as for B1
B15: FLL92 (VHH)
VHH: B10 VHH with F29W, F47L, P88S, T104S, D112N
notes: as for B1
B16: FLL122 (VHH)
VHH: B10 VHH with F29W, F47L, T104S, D112N
notes: as for B1
B17: FLL8 (VHH)
VHH: B10 VHH with A14V, S54N, G55S, T104R, S105D
notes: as for B1

target: T1, human FLT3 protein (human, UniProt P36888 27-541, limits assumed); assay: colorimetric ELISA, periplasmic extract
T1 construct: protein coated in the screening ELISA; also called ELISA FLT3
Text: (§1) Llamas were immunized with purified FLT3 protein expressed in Expi293 cells. A phage display library for expression of heavy variable antibody domains was constructed from circulating B cells isolated from the immunized llamas (See van der Linden, de Geus, Stok, Bos, van Wassenaar, Verrips, and Frenken. 2000. J Immunol Methods 240:185-195). Phage clones were screened for binding to FLT3 by expressing llama anti-FLT3 proteins in E. coli, preparing periplasmic extracts, and performing colorimetric ELISAs.

Row | ELISA FLT3 (absorbance) | Binder
1 | 4 | B1
2 | 4 | B2
3 | 4 | B3
4 | 4 | B4
5 | 4 | B5
6 | 3.7 | B6
7 | 3.9 | B7
8 | 4 | B8
9 | 4 | B9
10 | 1.3 | B10
11 | 3.7 | B11
12 | 0.8 | B12
13 | 1.9 | B13
14 | 2.7 | B14
15 | 4 | B15
16 | 4 | B16
17 | 3.3 | B17

target: T1, human FLT3 protein; assay: colorimetric ELISA, signal over control wells lacking FLT3
Text: as §1

Row | FLT3/control [ratio] | Binder
18 | 15 | B1
19 | 47 | B2
20 | 51 | B3
21 | 28 | B4
22 | 38 | B5
23 | 37 | B6
24 | 17 | B7
25 | 19 | B8
26 | 21 | B9
27 | 4 | B10
28 | 37 | B11
29 | 5 | B12
30 | 9 | B13
31 | 12 | B14
32 | 25 | B15
33 | 26 | B16
34 | 14 | B17
